{"source": "patent US20250041430A1", "about": "“CONJUGATE COMPOUND AND METHOD FOR PRODUCING CONJUGATE COMPOUND” (NIPPON SHOKUBAI CO., LTD., priority 2021, published 2025)", "key": {"Exonuclease I [1]": {"target": "Exonuclease I (Escherichia coli, UniProt P04995)", "details": "room temperature (about 25° C.), 0, 10 and 20 minutes, FIG. 4", "experimental": "(§1) Quantitative analysis of PGLMA-Mal-nucleic acid and an unmodified nucleic acid in a nucleic acid degradation test described below was performed by ion exchange chromatography. At this time, the analysis conditions were as follows. […]\n(§2) To a test tube, 42.5 μL (1.00 nmol) of the PGLMA-Mal-nucleic acid solution obtained in the section of [Preparation of conjugate of Polymer 1 and oligonucleic acid], 5 μL of 10× buffer solution (670 mM Glycine-KOH (pH 9.5), 10 mM DTT, 67 mM MgCl2), 2.5 μL of ultrapure water, and 0.5 μL of Exonuclease I (Takara Bio Inc.) (0.05 Unit/L as the final concentration of Exonuclease I in the mixed solution) were added and mixed, and the mixture was allowed to stand still at room temperature (about 25° C.). […] After 0, 10, and 20 minutes from the start of the reaction, the reaction liquid was collected and analyzed under the analysis conditions in the section of [Analysis conditions of conjugate of Polymer 1 and oligonucleic acid] or the section of [Analysis conditions of unmodified oligonucleic acid], and a residual rate of the nucleic acid was calculated from the following formula."}, "Exonuclease I [2]": {"target": "T1, Exonuclease I (Escherichia coli, UniProt P04995)", "T1 sequence (P04995 whole entry, looked up)": "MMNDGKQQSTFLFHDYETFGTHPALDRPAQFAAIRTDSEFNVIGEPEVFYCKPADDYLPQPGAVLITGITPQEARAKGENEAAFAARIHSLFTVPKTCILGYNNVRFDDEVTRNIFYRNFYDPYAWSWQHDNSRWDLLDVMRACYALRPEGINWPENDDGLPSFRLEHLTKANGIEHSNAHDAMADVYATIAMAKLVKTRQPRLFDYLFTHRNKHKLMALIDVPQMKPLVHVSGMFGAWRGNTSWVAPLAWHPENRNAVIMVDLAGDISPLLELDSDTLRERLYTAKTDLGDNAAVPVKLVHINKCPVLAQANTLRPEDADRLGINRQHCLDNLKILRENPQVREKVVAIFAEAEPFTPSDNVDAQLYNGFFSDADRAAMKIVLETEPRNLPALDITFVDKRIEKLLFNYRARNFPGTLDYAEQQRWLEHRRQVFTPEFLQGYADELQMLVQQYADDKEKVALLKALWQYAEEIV", "details": "room temperature (about 25° C.), 0, 10 and 20 minutes, FIG. 4", "remark": "listed apart in the source", "experimental": "as §1, §2"}, "[3]": {"system": "complement (SC5b-9) in human serum", "assay": "Evaluation of complement activation (2), MicroVue SC5b-9 Plus EIA", "details": "37° C., 1 hour, compared with the oligonucleic acid, FIG. 5", "excerpt": "Using a microspectrophotometer (NanoDrop ND-1000, Thermo Fisher Scientific Inc.), Conjugates 5 and 6 thus obtained were each diluted with PBS so that the value at a wavelength of 260 nm was 100. On the other hand, a conjugate (PEG-nucleic acid) prepared according to the description in the section of [Preparation of conjugate of polymer and oligonucleic acid] except that maleimide PEG (SUNBRIGHT ME-100MA, NOF CORPORATION) was used instead of Polymer 3, and the oligonucleic acid (base sequence (5′-d (TAGCACCATGGTTT)-3′)) described in Example 2 were each dissolved in 20 μL of PBS so that the value at a wavelength of 260 nm was 100 by the method described above to prepare a control group. Each solution (4 μL) and human serum (purchased from Tennessee Blood Service) (16 μL) were mixed and incubated at 37° C. for 1 hour. […] For each mixed solution, complement activation was evaluated using an enzyme immunoassay kit (MicroVue™ SC5b-9 Plus EIA, Quidel Corporation). The complement concentration was measured according to the manufacturer's protocol, and the measurement was performed on a plate reader (SH-9000, CORONA ELECTRIC Co., Ltd.). A reaction liquid obtained by reacting PBS with human serum was used as a negative control, and a ratio of the measured value of the negative control and a measured value in each reaction liquid was calculated by the following formula."}, "[4]": {"system": "complement (SC5b-9) in human serum", "assay": "Evaluation of complement activation (1), MicroVue SC5b-9 Plus EIA", "details": "37° C., 1 hour, compared with BSA, FIG. 2", "description": "Using a microspectrophotometer (NanoDrop ND-1000, Thermo Fisher Scientific Inc.), Conjugates 1 to 4 subjected to ultrafiltration treatment were each diluted with PBS so that the value at a wavelength of 280 nm was 100. On the other hand, a conjugate (PEG-BSA) prepared according to the description in the section of [Preparation of conjugate with protein] except that maleimide PEG (SUNBRIGHT ME-100MA, NOF CORPORATION) was used instead of Polymer 1, and 100 mg of BSA were each dissolved in 1 mL of PBS to prepare a control group. Each solution (40 μL) and human serum (purchased from Tennessee Blood Service) (160 μL) were mixed and incubated at 37° C. for 1 hour. […] For each mixed solution, complement activation was evaluated using an enzyme immunoassay kit (MicroVue™ SC5b-9 Plus EIA, Quidel Corporation). The complement concentration was measured according to the manufacturer's protocol, and the measurement was performed on a plate reader (SH-9000, CORONA ELECTRIC Co., Ltd.). A reaction liquid obtained by reacting PBS with human serum was used as a negative control, and a ratio of the measured value of the negative control and a measured value in each reaction liquid was calculated by the following formula.\n(Ratio with negative control)=(Measured value in each sample)÷(Measured value of negative control)"}}, "data": [{"substance": "5′-d (TAGCACCATGGTTT)-3′ [unmodified nucleic acid]", "values": [{"measurement": "degradation of the nucleic acid (residual rate of the nucleic acid)", "setting": "Exonuclease I [1]", "value": "degradation of the nucleic acid was observed over time"}]}, {"substance": "Conjugate 5: maleimide group of Polymer 1 bonded to the thiol group of the oligonucleic acid 5′-d (TAGCACCATGGTTT)-3′ (DNA, backbone not given here; conjugated to polymer via maleimide-thiol, further chemistry not fully specified)", "values": [{"measurement": "degradation of the nucleic acid (residual rate of the nucleic acid)", "setting": "Exonuclease I [2]", "value": "remarkable degradation of the nucleic acid was not observed"}, {"measurement": "complement activation (ratio with negative control)", "setting": "[3]", "value": "no large difference from the measured value of the oligonucleic acid"}]}, {"substance": "PEG-BSA: conjugate with BSA prepared using maleimide PEG (SUNBRIGHT ME-100MA) instead of Polymer 1", "values": [{"measurement": "complement activation (ratio with negative control)", "setting": "[4]", "value": "strong complement activation occurred"}]}]}
